According to the supplement of paper PMC10065799, “High-throughput profiling of sequence recognition by tyrosine kinases and SH2 domains using bacterial peptide display” (eLife, 2023):

biological target: MERTK (UniProt Q12866); assay: phosphorylation enrichment, bacterial display (enrichment ratio); higher = better substrate or ligand; peptides without Tyr show the background
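Also: 11-residue human phosphosite peptides and single-mutation variants displayed on the E. coli surface, counted by deep sequencing, each peptide's frequency after selection divided by its frequency in the unselected input library; frequency after pTyr selection over input frequency; kinase dosed for 20-30% of maximal phosphorylation in three min.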

Sequence of MERTK (Q12866 whole entry, looked up): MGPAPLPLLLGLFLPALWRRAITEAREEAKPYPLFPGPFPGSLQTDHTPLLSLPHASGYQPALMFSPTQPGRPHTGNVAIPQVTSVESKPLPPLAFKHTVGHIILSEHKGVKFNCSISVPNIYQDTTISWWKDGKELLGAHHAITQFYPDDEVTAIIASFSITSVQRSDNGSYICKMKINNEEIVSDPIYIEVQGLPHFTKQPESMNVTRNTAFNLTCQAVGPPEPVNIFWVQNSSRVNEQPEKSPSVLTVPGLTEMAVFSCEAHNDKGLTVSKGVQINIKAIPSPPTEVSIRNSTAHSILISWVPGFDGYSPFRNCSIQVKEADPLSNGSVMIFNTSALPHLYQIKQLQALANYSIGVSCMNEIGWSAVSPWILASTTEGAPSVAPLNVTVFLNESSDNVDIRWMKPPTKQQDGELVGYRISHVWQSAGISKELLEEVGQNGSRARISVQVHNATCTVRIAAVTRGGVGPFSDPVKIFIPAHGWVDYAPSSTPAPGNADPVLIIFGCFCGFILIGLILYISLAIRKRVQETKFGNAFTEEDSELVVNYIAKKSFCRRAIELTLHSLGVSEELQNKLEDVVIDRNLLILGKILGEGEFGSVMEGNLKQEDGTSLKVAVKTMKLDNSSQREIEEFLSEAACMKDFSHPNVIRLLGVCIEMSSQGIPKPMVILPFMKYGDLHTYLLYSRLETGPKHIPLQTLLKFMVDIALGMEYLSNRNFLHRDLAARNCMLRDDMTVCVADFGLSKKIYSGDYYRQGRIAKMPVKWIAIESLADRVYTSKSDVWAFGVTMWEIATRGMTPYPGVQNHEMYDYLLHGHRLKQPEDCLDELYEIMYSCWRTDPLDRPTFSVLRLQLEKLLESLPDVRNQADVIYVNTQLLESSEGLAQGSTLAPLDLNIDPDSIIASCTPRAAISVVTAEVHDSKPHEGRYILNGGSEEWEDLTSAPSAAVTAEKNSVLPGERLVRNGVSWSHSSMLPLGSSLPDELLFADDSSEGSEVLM

Sequence | phosphorylation enrichment
GFPVHYTDVSN [DNMT3B_Y815] | 0.526
RRGTRYMSSRP [RPL21_Y13_F15S] | 0.57
VIECSYTSADG [DHCR7_Y382] | 0.423
SARFHYLMAEK [LDHB_Y173_R172H] | 0.499
EEESCYILHSS [PATJ_Y783] | 0.484
QSKGIYFVQLE [MGAT4B_Y262_YF] | 2.38
PMQMPYDSRWE [PDGFRA_Y582_L580M] | 0.728
FQEKGYNKELR [CHRND_Y38] | 0.382
KAIMTYVPSFY [ACTN4_Y260_S262P] | 0.439
KVNKIYYPDFI [LIG3_Y767] | 1.05
FSDPSYVKQME [CDC5L_Y464_YF] | 0.407
ADFPDCKFRPR [SOX11_Y116_Y116C_YF] | 0.391
ETPSEYLEIVR [TMEM130_Y412] | 0.452
FPLELYERVRM [PRKCG_Y312_YF] | 0.444
FDFKKYGKGLR [ZNF445_Y433_YF] | 0.389
WISNRSLDFSS [PRPH2_Y184_Y184S] | 0.408
TFWKKYRTFWK [CCDC70_Y125] | 0.446

Sequence | phosphorylation enrichment
LQTYHYHGHSM [PDHA1_Y289_R288H] | 0.911
DVMDFYKTLRG [NR3C1_Y30] | 0.394
AEKPKYQINNI [TJP1_Y1602] | 0.349
HSFQCYGRNEA [ENTPD3_Y262] | 0.585
SSVAGYACLAF [MVD_Y131_A128V_YF] | 0.631
MTYMFYRENLR [NLRP14_Y443_V441M] | 0.608
SPYAVYLFFTF [RPGRIP1_Y826_R827L] | 0.533
TDGIAYEFRVT | 0.403
LSRDVYEEDSF [RET_Y900_YF] | 0.819
TVLEHYRRTHC [MYBPC3_Y1119] | 0.569
CTTIHKNYMCN [TP53_Y234_Y234K] | 0.484
NNDLCYWVPEL [IARS1_Y434] | 4.55
SNNYIYTTLGV [FAM83B_Y639_K640T] | 8.17
QLLIKYPPEEV [ZZZ3_Y670] | 0.858
KFMVGYEMIAQ [GALT_Y339_L342I] | 0.457
ALRHYYKLNII [ETV6_Y402] | 0.522

system: c-Src; assay: as above

Sequence | phosphorylation enrichment
GFPVHYTDVSN [DNMT3B_Y815] | 0.398
RRGTRYMSSRP [RPL21_Y13_F15S] | 0.947
VIECSYTSADG [DHCR7_Y382] | 0.556
SARFHYLMAEK [LDHB_Y173_R172H] | 0.403
EEESCYILHSS [PATJ_Y783] | 0.819
QSKGIYFVQLE [MGAT4B_Y262_YF] | 1.54
PMQMPYDSRWE [PDGFRA_Y582_L580M] | 1.49
FQEKGYNKELR [CHRND_Y38] | 0.378
KAIMTYVPSFY [ACTN4_Y260_S262P] | 0.472
KVNKIYYPDFI [LIG3_Y767] | 0.724
FSDPSYVKQME [CDC5L_Y464_YF] | 0.411
ADFPDCKFRPR [SOX11_Y116_Y116C_YF] | 0.465
ETPSEYLEIVR [TMEM130_Y412] | 0.49
FPLELYERVRM [PRKCG_Y312_YF] | 0.488
FDFKKYGKGLR [ZNF445_Y433_YF] | 0.484
WISNRSLDFSS [PRPH2_Y184_Y184S] | 0.321
TFWKKYRTFWK [CCDC70_Y125] | 0.664

Sequence | phosphorylation enrichment
LQTYHYHGHSM [PDHA1_Y289_R288H] | 0.916
DVMDFYKTLRG [NR3C1_Y30] | 0.342
AEKPKYQINNI [TJP1_Y1602] | 0.363
HSFQCYGRNEA [ENTPD3_Y262] | 0.417
SSVAGYACLAF [MVD_Y131_A128V_YF] | 0.519
MTYMFYRENLR [NLRP14_Y443_V441M] | 2.72
SPYAVYLFFTF [RPGRIP1_Y826_R827L] | 0.748
TDGIAYEFRVT | 0.491
LSRDVYEEDSF [RET_Y900_YF] | 0.828
TVLEHYRRTHC [MYBPC3_Y1119] | 0.395
CTTIHKNYMCN [TP53_Y234_Y234K] | 0.404
NNDLCYWVPEL [IARS1_Y434] | 2.17
SNNYIYTTLGV [FAM83B_Y639_K640T] | 5.7
QLLIKYPPEEV [ZZZ3_Y670] | 0.604
KFMVGYEMIAQ [GALT_Y339_L342I] | 0.427
ALRHYYKLNII [ETV6_Y402] | 0.427

biological target: Jak2 (UniProt O60674); assay: as above
Sequence (O60674 whole entry, looked up): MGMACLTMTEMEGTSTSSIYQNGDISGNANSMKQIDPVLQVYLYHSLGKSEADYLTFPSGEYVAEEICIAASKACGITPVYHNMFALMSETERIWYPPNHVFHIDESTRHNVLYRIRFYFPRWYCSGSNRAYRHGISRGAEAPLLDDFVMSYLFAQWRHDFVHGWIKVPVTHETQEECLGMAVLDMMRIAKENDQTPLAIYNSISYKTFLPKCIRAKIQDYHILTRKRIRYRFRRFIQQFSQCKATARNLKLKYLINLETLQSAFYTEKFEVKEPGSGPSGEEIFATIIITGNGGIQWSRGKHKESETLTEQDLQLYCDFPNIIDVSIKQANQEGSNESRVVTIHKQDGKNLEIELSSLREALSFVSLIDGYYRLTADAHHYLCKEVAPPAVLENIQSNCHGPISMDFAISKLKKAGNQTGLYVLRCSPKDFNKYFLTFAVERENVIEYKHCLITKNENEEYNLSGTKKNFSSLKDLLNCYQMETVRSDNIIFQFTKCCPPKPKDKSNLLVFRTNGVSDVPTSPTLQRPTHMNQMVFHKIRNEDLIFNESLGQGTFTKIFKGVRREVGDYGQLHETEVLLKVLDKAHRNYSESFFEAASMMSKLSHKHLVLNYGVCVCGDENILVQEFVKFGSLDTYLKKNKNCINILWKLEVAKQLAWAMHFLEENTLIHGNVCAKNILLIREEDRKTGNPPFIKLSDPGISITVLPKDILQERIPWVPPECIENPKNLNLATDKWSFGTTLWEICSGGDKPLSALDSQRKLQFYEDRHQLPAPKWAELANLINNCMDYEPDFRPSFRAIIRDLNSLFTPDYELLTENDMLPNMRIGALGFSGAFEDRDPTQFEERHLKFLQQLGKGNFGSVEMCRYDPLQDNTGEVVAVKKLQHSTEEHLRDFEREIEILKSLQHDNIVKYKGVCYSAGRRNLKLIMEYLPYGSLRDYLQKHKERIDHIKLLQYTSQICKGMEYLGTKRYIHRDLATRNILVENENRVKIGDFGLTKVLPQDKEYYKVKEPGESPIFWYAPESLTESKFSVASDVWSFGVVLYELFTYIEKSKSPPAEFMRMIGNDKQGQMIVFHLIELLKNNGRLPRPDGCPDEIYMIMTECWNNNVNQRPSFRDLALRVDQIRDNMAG

Sequence | phosphorylation enrichment
GFPVHYTDVSN [DNMT3B_Y815] | 0.51
RRGTRYMSSRP [RPL21_Y13_F15S] | 0.699
VIECSYTSADG [DHCR7_Y382] | 0.934
SARFHYLMAEK [LDHB_Y173_R172H] | 0.455
EEESCYILHSS [PATJ_Y783] | 1.31
QSKGIYFVQLE [MGAT4B_Y262_YF] | 1.88
PMQMPYDSRWE [PDGFRA_Y582_L580M] | 2.03
FQEKGYNKELR [CHRND_Y38] | 0.57
KAIMTYVPSFY [ACTN4_Y260_S262P] | 0.639
KVNKIYYPDFI [LIG3_Y767] | 0.68
FSDPSYVKQME [CDC5L_Y464_YF] | 0.704
ADFPDCKFRPR [SOX11_Y116_Y116C_YF] | 0.965
ETPSEYLEIVR [TMEM130_Y412] | 1.01
FPLELYERVRM [PRKCG_Y312_YF] | 1.09
FDFKKYGKGLR [ZNF445_Y433_YF] | 0.525
WISNRSLDFSS [PRPH2_Y184_Y184S] | 0.713
TFWKKYRTFWK [CCDC70_Y125] | 0.934

Sequence | phosphorylation enrichment
LQTYHYHGHSM [PDHA1_Y289_R288H] | 1.52
DVMDFYKTLRG [NR3C1_Y30] | 0.685
AEKPKYQINNI [TJP1_Y1602] | 0.704
HSFQCYGRNEA [ENTPD3_Y262] | 0.594
SSVAGYACLAF [MVD_Y131_A128V_YF] | 0.961
MTYMFYRENLR [NLRP14_Y443_V441M] | 1.1
SPYAVYLFFTF [RPGRIP1_Y826_R827L] | 0.783
TDGIAYEFRVT | 1.37
LSRDVYEEDSF [RET_Y900_YF] | 1.7
TVLEHYRRTHC [MYBPC3_Y1119] | 0.606
CTTIHKNYMCN [TP53_Y234_Y234K] | 0.702
NNDLCYWVPEL [IARS1_Y434] | 3.15
SNNYIYTTLGV [FAM83B_Y639_K640T] | 1.28
QLLIKYPPEEV [ZZZ3_Y670] | 1.39
KFMVGYEMIAQ [GALT_Y339_L342I] | 0.956
ALRHYYKLNII [ETV6_Y402] | 1.3

biological target: FGFR3 (UniProt P22607); assay: as above
Sequence (P22607 whole entry, looked up): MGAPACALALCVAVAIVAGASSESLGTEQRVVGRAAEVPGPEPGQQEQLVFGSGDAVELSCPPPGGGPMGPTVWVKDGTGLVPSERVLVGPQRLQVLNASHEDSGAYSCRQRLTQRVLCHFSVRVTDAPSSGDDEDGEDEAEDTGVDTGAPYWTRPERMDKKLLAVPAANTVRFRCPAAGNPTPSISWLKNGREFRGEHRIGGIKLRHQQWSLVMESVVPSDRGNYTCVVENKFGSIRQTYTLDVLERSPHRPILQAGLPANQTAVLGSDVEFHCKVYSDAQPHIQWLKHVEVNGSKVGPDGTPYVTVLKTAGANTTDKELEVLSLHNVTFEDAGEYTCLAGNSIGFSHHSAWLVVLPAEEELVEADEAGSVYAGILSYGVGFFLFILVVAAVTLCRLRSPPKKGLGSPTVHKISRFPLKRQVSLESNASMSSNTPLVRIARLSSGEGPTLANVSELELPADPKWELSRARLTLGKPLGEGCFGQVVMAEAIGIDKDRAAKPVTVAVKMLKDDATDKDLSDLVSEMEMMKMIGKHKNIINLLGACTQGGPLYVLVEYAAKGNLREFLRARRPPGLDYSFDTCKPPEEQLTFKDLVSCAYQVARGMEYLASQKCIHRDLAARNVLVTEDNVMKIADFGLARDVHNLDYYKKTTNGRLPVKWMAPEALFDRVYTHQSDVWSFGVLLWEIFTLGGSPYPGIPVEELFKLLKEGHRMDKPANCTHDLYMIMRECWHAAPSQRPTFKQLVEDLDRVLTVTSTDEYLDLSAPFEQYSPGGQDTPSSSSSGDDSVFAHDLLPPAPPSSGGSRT

Sequence | phosphorylation enrichment
GFPVHYTDVSN [DNMT3B_Y815] | 0.686
RRGTRYMSSRP [RPL21_Y13_F15S] | 0.633
VIECSYTSADG [DHCR7_Y382] | 0.623
SARFHYLMAEK [LDHB_Y173_R172H] | 0.751
EEESCYILHSS [PATJ_Y783] | 0.853
QSKGIYFVQLE [MGAT4B_Y262_YF] | 1.41
PMQMPYDSRWE [PDGFRA_Y582_L580M] | 1.1
FQEKGYNKELR [CHRND_Y38] | 0.519
KAIMTYVPSFY [ACTN4_Y260_S262P] | 0.509
KVNKIYYPDFI [LIG3_Y767] | 3.46
FSDPSYVKQME [CDC5L_Y464_YF] | 1.36
ADFPDCKFRPR [SOX11_Y116_Y116C_YF] | 0.616
ETPSEYLEIVR [TMEM130_Y412] | 0.77
FPLELYERVRM [PRKCG_Y312_YF] | 0.932
FDFKKYGKGLR [ZNF445_Y433_YF] | 0.498
WISNRSLDFSS [PRPH2_Y184_Y184S] | 0.583
TFWKKYRTFWK [CCDC70_Y125] | 0.555

Sequence | phosphorylation enrichment
LQTYHYHGHSM [PDHA1_Y289_R288H] | 0.963
DVMDFYKTLRG [NR3C1_Y30] | 0.484
AEKPKYQINNI [TJP1_Y1602] | 0.427
HSFQCYGRNEA [ENTPD3_Y262] | 1.18
SSVAGYACLAF [MVD_Y131_A128V_YF] | 0.792
MTYMFYRENLR [NLRP14_Y443_V441M] | 0.753
SPYAVYLFFTF [RPGRIP1_Y826_R827L] | 0.87
TDGIAYEFRVT | 0.916
LSRDVYEEDSF [RET_Y900_YF] | 0.89
TVLEHYRRTHC [MYBPC3_Y1119] | 0.519
CTTIHKNYMCN [TP53_Y234_Y234K] | 0.56
NNDLCYWVPEL [IARS1_Y434] | 5.02
SNNYIYTTLGV [FAM83B_Y639_K640T] | 4.56
QLLIKYPPEEV [ZZZ3_Y670] | 0.95
KFMVGYEMIAQ [GALT_Y339_L342I] | 0.723
ALRHYYKLNII [ETV6_Y402] | 1.36
